Results from PMC3094545 (Structure (London, England : 1993), 2011).

Molecular target: the molecule itself
Assay: crystal structure

B1: cytoplasmic domain of ZntB from Salmonella enterica serovar Typhimurium (domain or fragment)
chain: MEAIKGSDVNVPDAVFAWLLDGRGGVKPLEDNDVIDSQHPCWLHLNYTHPDSARWLASTPLLPNNVRDALAGESSRPRVSRMGEGTLITLRCINGSTDERPDQLVAMRLYMDERFIVSTRQRKVLALDDVVSDLQEGTGPVDCGGWLVDVCDALTDHASEFIEELHDKIIDLEDNLLDQQIPPRGFLALLRKQLIVMRRYMAPQRDVYARLASERLPWMSDDHRRRMQDIADRLGRGLDEIDACIARTGIMADEIAQVMQES
stoichiometry N: 5
